Laboratory results from patent publication US20040248181A1, “Method and kit for enhancing extraction and quantification of target molecules using microdialysis” (priority 2003, published 2004).

B1: IL-2: mouse cytokine, 15 kD; target analyte of microdialysis sampling (protein, UniProt P04351 21-169, looked up)
Interleukin-2: APTSSSTSSSTAEAQQQQQQQQQQQQHLEQLLMDLQELLSRMENYRNLKLPRMLTFKFYLPKQATELKDLQCLEDELGPLRHVLDLTQSKSFQLEDAENFISNIRVTVVKLKGSDNTFECQFDDESATVVDFLRRWIAFCQSIISTSPQ

Assay: Microdialysis sampling of cytokines across CMA-20 probe (10 mm polyethersulfone membrane, 100 kD MWCO) with multiplexed cytokine bead array / flow cytometry readout
Assay type: physicochemical
Details: control perfusion fluid without microspheres; flow rate 1.5 μl/min; quiescent phosphate buffer pH 7.4 containing 5000 pg/ml cytokines
Description: Microdialysis probes (CMA-20) with a 10 mm polyethersulfone membrane (100 kDa MWCO) were purchased from CMA Microdialysis (Acton Mass.) and were used as received. For control experiments, the perfusion fluid contained the assay diluent from the BD Pharmingen kit. To enhance the transport of cytokines during the microdialysis sampling process, 5 μl of bead solution for each target analyte was combined and diluted to 250 μl with the assay diluent. […] Greater than 200 μl of fluid was allowed to pass through the microdialysis probe that was immersed into a standard containing 5000 pg/ml of IL-2, IL-4, IL-5, IFN-gamma, and TNF-alpha. After sample collection, the dialysates containing microspheres were reconstituted in 25 μl of assay diluent. Microspheres with coupled target analyte were then incubated with 25 μl phycoerythrin detection reagent for 2 hours and washed briefly prior to flow cytometric analysis.
The dialysate samples were analyzed using a BD FACScan flow cytometer with the appropriate BD Biosciences software for this analysis.
Different cytokines (e.g., mouse IL-2 (15 kD), IL-4 (20-25 kD), and TNF-α ([…])) have been successfully measured across microdialysis probes (CMA-20, 10 mm, polyethersulfone membrane, MWCO 100 kD) in a quiescent solution using a multiplexed cytokine bead array assay (BD Pharmingen). TNF-α has the largest molecular weight of the cytokines targeted for analysis in this example (Thorpe et al., “Detection and Measurement of Cytokines,” Blood Rev. 6:133-48 (1992), which is hereby incorporated by reference in its entirety). Only 25 μl of sample was needed to simultaneously measure all three of these cytokines in solution using the multiplexed bead array (Carson et al., “Simultaneous Quantitation of 15 Cytokines Using a Multiplexed Flow Cytometric Assay,” J. Immunol. Methods 227:41-52 (1999), which is hereby incorporated by reference in its entirety). […]
For TNF-α, the “microdialysis Ed (extraction efficiency)” value was 1.5±0.5%.
With “IL-4: mouse cytokine, 20-25 kD; target analyte of microdialysis sampling” the “microdialysis Ed (extraction efficiency)” value was 0.9±0.3%.
In the case of B1, the “microdialysis Ed (extraction efficiency)” value is reported as 1.1±0.3%.
